The target in this series is T1, DtxR (Corynebacterium diphtheriae, UniProt H2I233 SEQ:1-226).
T1 sequence: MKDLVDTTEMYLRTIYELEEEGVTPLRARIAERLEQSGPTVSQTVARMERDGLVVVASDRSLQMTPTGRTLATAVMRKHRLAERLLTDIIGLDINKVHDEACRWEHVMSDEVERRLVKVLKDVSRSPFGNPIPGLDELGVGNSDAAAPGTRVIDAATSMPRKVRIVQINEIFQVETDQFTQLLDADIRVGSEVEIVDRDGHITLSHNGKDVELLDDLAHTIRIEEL
Description: EMSA; competed by unlabeled tox DNA, not by nonspecific DNA; 10 mM Tris-OAc pH 7.4, 50 mM KCl, 1 mM EDTA, calf thymus DNA. Particulars: chain copies: 2 (inferred); label: 32P end.

B1: toxO (tox operator) 100 bp fragment (dsDNA)
DNA 1: ATAATTAGGATAGCTTTACCTAATTAT
DNA 2: ATAATTAGGTAAAGCTATCCTAATTAT
With B1, the binding result was “binds”.

The values above are taken from patent publication US20050031645, “Vaccine compositions” (Advanced Microbial Solutions Corporation, published 2005).
